Measured values reported in patent US20120277120.

Legend:
Assay in all cases: cell_activity
[1] = test system: YJR030c-specific ZFN (synthetic); details: yeast, pCUT016 alone; 63% with dual nuclease plasmid pCUT032
[2] = test system: SFC1-specific ZFN (synthetic); details: yeast, pCUT015 alone; 76% with dual nuclease plasmid pCUT032
[3] = test system: FS-specific TALEN (synthetic); details: yeast; 3 clones single, 1 double integration; half-sites not stated; scale: clone of 48 with all three ADS cassettes integrated
[4] = test system: ZFN.gfp (CompoZr zinc finger nuclease heterodimer ZFN.gfp.1/ZFN.gfp.2) (synthetic); details: yeast, three integrated target copies; 0 of 96 with empty vector; monomer to half-site assignment not stated; scale: of 96 colonies with all three loci replaced

YJR030c ORF target
activity (% ADE2-positive) [1]: 5

SFC1 ORF target
activity (% GFP-positive) [2]: 50

TAGTGGAGGAATTAAAAGAGGAAGTTAAGAAGGAATTGATAACTATCAA (double strand) [FS TALEN target site]
activity [3]: 1

ACAACTACAACAGCCACAACGTCTATATCATGGCCGACAAGCA (double strand) [ZFN.gfp target in emgfp-delta]
activity [4]: 23
